From patent KR20190026632A (dated 2019)

T1: His-CRS (UniProt P49589 1-748)
T1 construct: not shown: His tag
T1 sequence (looked up): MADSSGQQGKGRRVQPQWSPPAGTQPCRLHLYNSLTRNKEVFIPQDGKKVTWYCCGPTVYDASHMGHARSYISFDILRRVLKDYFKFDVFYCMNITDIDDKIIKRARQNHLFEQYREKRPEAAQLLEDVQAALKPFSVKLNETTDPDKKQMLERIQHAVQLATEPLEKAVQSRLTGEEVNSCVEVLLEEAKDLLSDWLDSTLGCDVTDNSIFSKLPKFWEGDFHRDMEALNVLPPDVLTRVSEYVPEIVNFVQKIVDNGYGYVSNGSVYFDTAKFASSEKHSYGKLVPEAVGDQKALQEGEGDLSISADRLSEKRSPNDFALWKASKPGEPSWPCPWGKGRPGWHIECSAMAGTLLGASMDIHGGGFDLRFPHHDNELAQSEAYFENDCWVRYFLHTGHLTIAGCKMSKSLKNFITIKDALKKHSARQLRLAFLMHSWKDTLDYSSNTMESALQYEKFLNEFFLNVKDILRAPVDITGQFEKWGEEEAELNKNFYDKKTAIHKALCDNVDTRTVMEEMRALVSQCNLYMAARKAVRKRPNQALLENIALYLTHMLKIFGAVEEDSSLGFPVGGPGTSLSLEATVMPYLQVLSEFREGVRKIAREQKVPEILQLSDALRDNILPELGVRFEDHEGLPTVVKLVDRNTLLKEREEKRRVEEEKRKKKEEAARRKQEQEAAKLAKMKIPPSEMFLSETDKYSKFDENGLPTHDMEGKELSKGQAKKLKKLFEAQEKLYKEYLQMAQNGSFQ

T2: His-AIMP1 (UniProt Q12904 1-312, limits assumed)
T2 construct: not shown: His tag
T2 sequence (looked up): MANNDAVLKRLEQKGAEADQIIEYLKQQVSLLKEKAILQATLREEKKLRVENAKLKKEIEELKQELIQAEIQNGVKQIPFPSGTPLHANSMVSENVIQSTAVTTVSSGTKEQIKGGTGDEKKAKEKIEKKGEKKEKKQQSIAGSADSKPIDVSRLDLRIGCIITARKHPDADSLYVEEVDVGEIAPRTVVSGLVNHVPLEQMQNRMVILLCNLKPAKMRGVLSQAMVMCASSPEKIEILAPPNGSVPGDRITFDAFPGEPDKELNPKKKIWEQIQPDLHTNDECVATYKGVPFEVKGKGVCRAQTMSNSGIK

T3: His-GRS (UniProt P41250 55-739)
T3 construct: not shown: His tag
T3 sequence (looked up): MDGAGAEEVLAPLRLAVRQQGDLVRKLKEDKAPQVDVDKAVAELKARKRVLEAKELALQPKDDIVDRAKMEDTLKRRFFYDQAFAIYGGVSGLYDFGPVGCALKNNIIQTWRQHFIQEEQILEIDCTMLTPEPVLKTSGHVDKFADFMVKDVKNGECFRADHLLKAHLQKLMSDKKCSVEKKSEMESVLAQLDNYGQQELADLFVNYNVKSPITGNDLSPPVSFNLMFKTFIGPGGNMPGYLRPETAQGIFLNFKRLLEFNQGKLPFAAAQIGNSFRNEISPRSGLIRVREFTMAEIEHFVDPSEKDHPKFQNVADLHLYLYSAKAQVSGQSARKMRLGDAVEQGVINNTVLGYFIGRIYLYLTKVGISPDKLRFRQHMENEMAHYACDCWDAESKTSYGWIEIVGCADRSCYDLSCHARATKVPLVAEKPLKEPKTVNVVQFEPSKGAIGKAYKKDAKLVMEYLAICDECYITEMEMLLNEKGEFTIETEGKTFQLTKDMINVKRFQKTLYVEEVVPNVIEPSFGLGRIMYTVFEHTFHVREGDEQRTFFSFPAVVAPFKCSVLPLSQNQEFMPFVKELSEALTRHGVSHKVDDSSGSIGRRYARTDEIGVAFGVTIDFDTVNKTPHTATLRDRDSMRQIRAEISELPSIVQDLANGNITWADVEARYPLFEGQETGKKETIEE

T4: 34S-AIMP2 (UniProt Q13155 1-320)
T4 sequence (looked up): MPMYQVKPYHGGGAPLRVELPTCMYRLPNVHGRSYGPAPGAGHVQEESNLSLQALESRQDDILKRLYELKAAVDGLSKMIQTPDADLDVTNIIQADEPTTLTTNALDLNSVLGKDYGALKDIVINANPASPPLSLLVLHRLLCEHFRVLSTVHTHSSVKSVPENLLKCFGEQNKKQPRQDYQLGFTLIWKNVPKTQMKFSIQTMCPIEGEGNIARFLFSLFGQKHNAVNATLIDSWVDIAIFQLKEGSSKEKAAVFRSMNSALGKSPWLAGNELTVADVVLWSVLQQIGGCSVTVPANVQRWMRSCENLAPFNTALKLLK

T5: His-WRS (UniProt P23381 1-471, limits assumed)
T5 construct: not shown: His tag
T5 sequence (looked up): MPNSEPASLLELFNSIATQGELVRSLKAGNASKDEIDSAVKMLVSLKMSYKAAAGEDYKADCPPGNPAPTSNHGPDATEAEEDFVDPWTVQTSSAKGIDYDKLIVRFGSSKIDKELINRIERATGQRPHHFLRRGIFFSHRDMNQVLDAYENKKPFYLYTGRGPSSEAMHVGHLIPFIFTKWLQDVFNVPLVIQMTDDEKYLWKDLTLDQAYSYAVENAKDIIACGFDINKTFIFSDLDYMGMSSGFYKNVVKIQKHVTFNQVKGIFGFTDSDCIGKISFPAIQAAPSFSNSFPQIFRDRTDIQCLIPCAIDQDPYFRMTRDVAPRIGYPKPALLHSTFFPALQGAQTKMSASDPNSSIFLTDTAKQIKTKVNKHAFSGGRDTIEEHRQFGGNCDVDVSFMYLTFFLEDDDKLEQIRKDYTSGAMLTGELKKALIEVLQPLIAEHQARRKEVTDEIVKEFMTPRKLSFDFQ

T6: AIMP3 (Aminoacyl tRNA synthetase complex-interacting multifunctional protein 3) (Homo sapiens (Human), UniProt O43324 1-174, limits assumed)
T6 construct: also called AIMP3 단백질
T6 sequence: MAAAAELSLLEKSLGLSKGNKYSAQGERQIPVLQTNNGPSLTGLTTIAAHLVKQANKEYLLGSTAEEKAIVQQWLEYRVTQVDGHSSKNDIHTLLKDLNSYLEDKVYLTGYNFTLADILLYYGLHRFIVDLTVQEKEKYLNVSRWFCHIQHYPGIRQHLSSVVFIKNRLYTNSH

T7: 메티오닐 티알엔에이 합성효소 (methionyl-tRNA synthetase, MRS) (human, UniProt P56192 1-900)
T7 construct: Full-length protein; In the cross-reactivity ELISA two preparations were coated (His-MRS, MRS full) and the result is told only for 'MRS'; In the western blots and cell staining it is the endogenous MRS of H460, PANC-1 and SCK cells; In SPR it was on the chip as MRS+AIMP3 co-purified protein; also called His-MRS; MRS full
T7 sequence: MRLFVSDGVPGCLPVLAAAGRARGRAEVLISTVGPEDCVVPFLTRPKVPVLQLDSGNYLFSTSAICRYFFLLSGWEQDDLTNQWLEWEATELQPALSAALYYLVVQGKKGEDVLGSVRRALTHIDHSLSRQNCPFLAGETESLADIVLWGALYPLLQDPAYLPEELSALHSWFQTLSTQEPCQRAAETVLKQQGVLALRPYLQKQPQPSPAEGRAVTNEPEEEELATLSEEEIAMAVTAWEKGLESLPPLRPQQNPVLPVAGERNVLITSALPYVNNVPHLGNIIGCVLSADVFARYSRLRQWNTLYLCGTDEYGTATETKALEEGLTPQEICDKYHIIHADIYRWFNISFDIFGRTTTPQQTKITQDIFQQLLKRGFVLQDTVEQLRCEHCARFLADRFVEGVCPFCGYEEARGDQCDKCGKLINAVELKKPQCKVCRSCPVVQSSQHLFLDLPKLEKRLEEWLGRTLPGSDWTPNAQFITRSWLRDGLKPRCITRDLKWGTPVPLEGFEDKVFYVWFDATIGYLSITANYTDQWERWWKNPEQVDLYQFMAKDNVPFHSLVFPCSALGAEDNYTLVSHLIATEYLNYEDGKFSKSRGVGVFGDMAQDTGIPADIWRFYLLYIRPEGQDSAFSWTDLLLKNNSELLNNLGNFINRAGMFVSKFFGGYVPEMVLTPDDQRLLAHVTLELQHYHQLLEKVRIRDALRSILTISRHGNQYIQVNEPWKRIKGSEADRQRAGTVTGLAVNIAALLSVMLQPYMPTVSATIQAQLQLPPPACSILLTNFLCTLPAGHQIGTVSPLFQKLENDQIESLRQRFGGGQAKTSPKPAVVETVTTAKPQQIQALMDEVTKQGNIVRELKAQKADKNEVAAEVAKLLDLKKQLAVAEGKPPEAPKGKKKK


Columns and labels:
His-CRS = molecular target: T1, His-CRS; test: ELISA; protein coated at 1 μg/ml, OD 450 nm
His-AIMP1 = molecular target: T2, His-AIMP1; test: ELISA; protein coated at 1 μg/ml, OD 450 nm
His-KRS = molecular target: T8, His-KRS (UniProt Q15046 1-597); test: ELISA; protein coated at 1 μg/ml, OD 450 nm
T8 construct: not shown: His tag
T8 sequence (Q15046 whole entry): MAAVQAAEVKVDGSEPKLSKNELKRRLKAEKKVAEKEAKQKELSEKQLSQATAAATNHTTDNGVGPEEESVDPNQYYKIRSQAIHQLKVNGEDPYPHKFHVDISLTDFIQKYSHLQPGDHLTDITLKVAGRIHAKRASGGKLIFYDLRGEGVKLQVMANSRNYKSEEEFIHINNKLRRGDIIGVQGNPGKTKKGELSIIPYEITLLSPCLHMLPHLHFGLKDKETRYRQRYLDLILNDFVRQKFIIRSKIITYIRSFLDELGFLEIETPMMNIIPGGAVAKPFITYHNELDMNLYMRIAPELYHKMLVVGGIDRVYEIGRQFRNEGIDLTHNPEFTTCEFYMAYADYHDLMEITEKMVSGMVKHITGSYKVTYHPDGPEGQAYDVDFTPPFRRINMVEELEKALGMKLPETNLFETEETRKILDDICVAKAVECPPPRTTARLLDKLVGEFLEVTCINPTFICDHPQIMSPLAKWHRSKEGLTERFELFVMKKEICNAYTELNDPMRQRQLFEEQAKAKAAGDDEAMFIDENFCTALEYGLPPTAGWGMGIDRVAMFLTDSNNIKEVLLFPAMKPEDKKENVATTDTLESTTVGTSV

His-GRS = molecular target: T3, His-GRS; test: ELISA; protein coated at 1 μg/ml, OD 450 nm
34S-AIMP2 = molecular target: T4, 34S-AIMP2; test: ELISA; protein coated at 1 μg/ml, OD 450 nm
His-WRS = molecular target: T5, His-WRS; test: ELISA; protein coated at 1 μg/ml, OD 450 nm
[1] = molecular target: T6, AIMP3 (Aminoacyl tRNA synthetase …); test: SPR; AIMP3 on CM5 chip, antibody flowed at various concentrations
[2] = molecular target: T7, 메티오닐 티알엔에이 합성효소 (methionyl-tRNA …); test: SPR; MRS+AIMP3 co-purified protein on CM5 chip, antibody flowed at various concentrations

binding result (His-CRS)	binding result (His-AIMP1)	binding result (His-KRS)	binding result (His-GRS)	binding result (34S-AIMP2)	binding result (His-WRS)	binding result [1]	Kd [2]	Binder
no binding (tested: 500 ng/ml)	no binding (tested: 500 ng/ml)	no binding (tested: 500 ng/ml)	no binding (tested: 500 ng/ml)	no binding (tested: 500 ng/ml)	no binding (tested: 500 ng/ml)	no binding	5.42 nM	1E8 항체 (anti-MRS monoclonal antibody 1E8) (antibody, mouse IgG2a, kappa, V domains shown, Mouse monoclonal from hybridoma 1E8 (immunogen MRS-AIMP3 co-purified protein); also called 1E8 IgG; 1E8 antibody) VH: DVKLQESGPGLVNPSQSLSLTCTVTGYSITSDYAWNWIRQFPGNKLEWMGYISYSGRTSYKSSLKSRISITRDTSKNQFFLELNSVTTEDTATYYCARDYGNFVGYFDVWGAGTTVTVSS VL: DIVMTQSPSSLAVSVGEKVTMSCKSSQSLLYSSNQKNYLAWYQQKPGQSPKLLIYWASTRESGVPDRFTGSGSGTEFTLTISSVKAEDLAVYYCQQYYSYPTFGGGTKLEIKA
no binding (tested: 500 ng/ml)	no binding (tested: 500 ng/ml)	no binding (tested: 500 ng/ml)	no binding (tested: 500 ng/ml)	no binding (tested: 500 ng/ml)	no binding (tested: 500 ng/ml)	no binding	1.56 nM	8A12 항체 (anti-MRS monoclonal antibody 8A12) (antibody, mouse IgG2a, kappa, V domains shown, Mouse monoclonal from hybridoma 8A12 (also named 34-8F2); also called 8A12 IgG; 8A12 antibody) VH: DVKLQESGPGLVKPSQSLSLTCTVTGYSITSEYAWTWIRQFPGNKLEWMGYINYNGNTNLNPSLKSRISIIRDTSKNQFFLQLNSVTTEDTATYYCARSLWPRGWFAYWGQGTLVTVSA VL: DIQMTQSPSSMYASLGERVTITCKASQDINSYLSWFQQKPGKSPKTLMYRANRLVDGVPSRFSGSGSGQDYSLTISSLEYEDMGIYYCLQYDEFPRTFGGGTKLEIKA
